# Biological target: T1, HA-tagged wild-type Erk2 (HA-Erk2, T188T or AA1-358) (mouse, UniProt P63085 1-358)
# T1 construct: Mouse cDNA in a CMV expression plasmid, expressed in transfected cells; also called wt-Erk2; not shown: hemagglutinin (HA) tag
# Assay: co-precipitation of HA-tagged and Flag-tagged Erk2 after carbachol stimulation
# Experimental: HEK293-cells were cultured in the absence or presence of carbachol (100 μM, 6 min) or UK14304 (1 μM, 10 min) before lysis. The inventors prepared ventricular tissue from mouse hearts derived from male 129SvEv (FIG. 1g,h), FVB/N wild-type (WT) or Erk2^T188-transgenic mice (1188T, T188D, T188S, T188A) (FVB/N background) without or after transverse aortic constriction (TAC, see Fig. legends for the duration of TAC) or carbachol-infusion. Control animals were strain-, age- and gender-matched. Lysates of ventricular tissue underwent sonification before immunoblot or immunoprecipitation assays.
# FIG. 4 Activation of the entire MAPK-cascade is necessary for interaction of Gβγ with Erk1/2. […] (b) Gene silencing of Raf1 suppressed the carbachol-stimulated interaction of Erk1/2 with Gβ as assessed by co-immunoprecipitation with ERK1/2-specific antibodies (anti-ERK1/2). (c) Inhibition of Mek1/2-activity by PD98059 (50 μM) suppressed the carbachol-stimulated (CCH, 5 min) interaction of HA-Raf1 (Raf1) with Gβ as assessed by co-immunoprecipitation. […] (g, h) Interactions of HA-tagged wild-type Erk2 (AA1-358), truncated Erk2-mutants (AA1-318; AA22-358; AA22-318) and dimerization-deficient Erk2^Δ174-177 with Gβγ as assessed by co-immunoprecipition (g) and carbachol-stimulated inositol phosphate signaling (h) in HEK293-cells. […]
binder,measurement,value
"Flag-Erk2^Δ174-177 (enzyme, also called D174-177; dimerization-deficient Erk2^Δ174-177-mutant; not shown: Flag tag) MAAAAAAGPEMVRGQVFDVGPRYTNLSYIGEGAYGMVCSAYDNLNKVRVAIKKISPFEHQTYCQRTLREIKILLRFRHENIIGINDIIRAPTIEQMKDVYIVQDLMETDLYKLLKTQHLSNDHICYFLYQILRGLKYIHSANVLHRDLKPSNLLLNTTCDLKICDFGLARVADHTGFLTEYVATRWYRAPEIMLNSKGYTKSIDIWSVGCILAEMLSNRPIFPGKHYLDQLNHILGILGSPSQEDLNCIINLKARNYLLSLPHKNKVPWNRLFPNADSKALDLLDKMLTFNPHKRIEVEQALAHPYLEQYYDPSDEPIAEAPFKFDMELDDLPKEKLKELIFEETARFQPGYRS",binding result,no binding

# From US20110274694A1 (JULIUS MAXIMILIANS UNIVERSITAET WUERZBURG, published 2011)
